Source: US20090203538A1 (INSTITUTE FOR ANTIBODIES, published 2009)

T1: IgSF4 (immunoglobulin superfamily member 4) (Homo sapiens, UniProt Q9BY67 45-442)
T1 construct: Native protein on cancer cell lines; also called BL2; ST17
T1 sequence: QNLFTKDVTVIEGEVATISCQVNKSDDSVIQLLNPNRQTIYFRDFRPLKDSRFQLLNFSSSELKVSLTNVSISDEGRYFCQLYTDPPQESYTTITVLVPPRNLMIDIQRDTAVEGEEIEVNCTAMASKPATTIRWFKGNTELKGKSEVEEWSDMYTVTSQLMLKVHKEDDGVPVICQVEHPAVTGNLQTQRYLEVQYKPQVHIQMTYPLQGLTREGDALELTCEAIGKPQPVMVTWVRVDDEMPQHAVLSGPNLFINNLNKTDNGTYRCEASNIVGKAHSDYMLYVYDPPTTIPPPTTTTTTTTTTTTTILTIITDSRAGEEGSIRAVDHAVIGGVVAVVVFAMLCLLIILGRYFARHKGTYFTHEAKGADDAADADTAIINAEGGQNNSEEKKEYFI

T2: BCAM (basal cell adhesion molecule) (Lutheran blood group) (Homo sapiens (Human), UniProt P50895 32-628, limits assumed)
T2 construct: also called CD239 antigen
T2 sequence: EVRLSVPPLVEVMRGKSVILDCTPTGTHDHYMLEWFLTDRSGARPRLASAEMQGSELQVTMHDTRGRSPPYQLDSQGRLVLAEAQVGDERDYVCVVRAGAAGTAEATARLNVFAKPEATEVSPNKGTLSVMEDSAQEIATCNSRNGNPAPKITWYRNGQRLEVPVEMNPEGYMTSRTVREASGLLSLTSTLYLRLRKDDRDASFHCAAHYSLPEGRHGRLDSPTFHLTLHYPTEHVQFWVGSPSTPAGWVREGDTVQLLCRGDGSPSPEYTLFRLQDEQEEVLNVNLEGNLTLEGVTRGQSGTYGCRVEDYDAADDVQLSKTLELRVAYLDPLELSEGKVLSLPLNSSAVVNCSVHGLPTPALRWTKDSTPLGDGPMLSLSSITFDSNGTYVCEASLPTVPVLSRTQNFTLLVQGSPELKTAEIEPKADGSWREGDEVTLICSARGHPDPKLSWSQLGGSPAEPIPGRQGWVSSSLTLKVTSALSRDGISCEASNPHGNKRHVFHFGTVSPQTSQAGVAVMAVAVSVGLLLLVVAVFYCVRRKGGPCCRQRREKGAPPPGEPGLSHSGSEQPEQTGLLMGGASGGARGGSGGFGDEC


Assays:
[1] = biological target: T1, IgSF4 (immunoglobulin superfamily …); assay: antigen assigned by the filing's classifying and identification method; details for this clone not given
[2] = biological target: T2, BCAM (basal cell adhesion molecule) …; assay: as above

Row | Binder | binding result [1] | binding result [2]
1 | 076-048 antibody (antibody, V domains shown, Clone of the scFv-CL-cp3 phage library) VH: QVQLVQSGAEVKKPGSSVKVSCRASGGTFSSYAISWVRQAPGQGLEWMGGIIPIFGTANYAQKFQGRVTITADKSTSTAYMELSSLRSEDTAVYYCAGDISRGSSWYGYYFDYWGQGTLVTVSR VL: not shown | binds | 
2 | 067-024 antibody (antibody, V domains shown, Clone of the scFv-CL-cp3 phage library) VH: QVQLVQSGAEVKKPGASVKVSCKASGYTFTSYYMHWVRQAPGQGLEWMGIINPSGGSTSYAQKFQGRVTMTRDTSTSTVYMELSSLRSEDTAVYYCARAKRRGSAFDIWGQGTTVTVSR VL: SSELTQDPAVSVALGQTVRITCQGDSLRSYYASWYQQKPGQAPVLVIYGKNNRPSGIPDRFSGSSSGNTASLTITGAQAEDEADYYCNSRDSSGNHVVFGGGTKLTVLG |  | binds
